test: yeast display, Sf9 membrane polyspecificity reagent, FACS + sequencing; frameworks hold sequencing errors
Outline: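 A synthetic nanobody library was expressed on Saccharomyces cerevisiae BJ5465 by galactose induction for 36–48 hours. The library was stained for 1 hour at 4 °C with 10% biotinylated, detergent-solubilized Sf9 membrane reagent and enriched with streptavidin microbeads before FACS. Low and high (top ~1%) gates were set on anti-HA fluorescence for expression and streptavidin fluorescence for reagent binding, and each polyreactivity label reflects the gate of origin.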

| Sequence | polyreactivity (PSR sort gate) |
| --- | --- |
| QVQLVESGGGLVQAGGSLRLSCAASGITFTFNAKGWYRQAPGKERELVAAISSTTSTIYADSVKRRFTISRDNAKNTVYLQMNRLKPEDTAVYYCAAVEFELLGDYWRQGTQVTVSS | low polyreactivity |
| QVQLVESGGGLVQAGGSLRLSCAASGFIFRYYAMGWYRQAPGKEREFVAGITGTGGSTYYADSVKGRFTISRDNAKNTVYLQMNSLKPEDTAVYYCAADLWYFSSRVRYGYWGQGTQVTVSS | high polyreactivity |
| QVQLVDSVGGLVQAGGSLPLICAASGSTFGNYAKGWYRQAPGKERELVAAINSGDSTSYADSVKGRFTISRDNANNTVYLHMNSLKPEDTAVYYCSVRPRRNQYGYWGQGTQLTVSS | low polyreactivity |
| QVQLVESGGGLVQAGGSLRLSCAASGRIFVYYTMGWYRPAPGKEREFVAAITRSGGRTYYADSVKGRFTISRDNAKNTVYLQMNSLKPEDTAVYYCNRDPTYLAYYIKYDSWGQGTQVTVSS | high polyreactivity |
| QVQLVESGGGLVQAGGSLRLSCAASGIIFRGYAMGWYRQAPGKERELVASITRRGGSTRYADSVKGRFTISRDNAKNTVYLQMNSLKPEDTAVYYCAAVRVHTDRYNYWGQGTQVTVSS | high polyreactivity |
| QVQLVESGGGLVQAGGSLRLSCAASGRIFRNYAMGWYRQATGKERELVAAISTRSGSTYYADSVKGRSTISRDNAKNTVYLQMNSLKPEDTAVYYCNKVSVGRYYALYYWGQGTQVTVAS | high polyreactivity |
| QVQLVESGGGLVQAGGSLRLSCASSGRTFSPYAMGWYRQAPGKERELVAAISSGGGNTYYADSVKGRITISRDNAKNTVYLQMNSLKPVDTAVYYCNAAQRRGGLGYWGLGTQVTVSS | high polyreactivity |
| QVQLVESGGGLDQAGGSLLLSCAASGSIFRSNAMGWYRQAPRKERELVAAIDYSGTSTTYADSVKGRFSISRDNAKNTVYLQMNSLKPEDTAVYYCNADGYYRGYWSGYEYWGQGTQGTVSS | low polyreactivity |
| QVQLVESGRGLVQAGGSRRLSCAASGSIITWNAMARYRQAPGKERELFAAIDWDGGSTYYADSVKGRFTISRDNAKNTVYFQMNSLKPEDTAVYYCAATYGWYTGRYPSGHYYYWGQGTQVTVSS | low polyreactivity |
| QVQLVESGGGLVQAGGSLRLSCAASGITFGANTMGCYRQAPGKERELVSAITISGGITHYADSVKGRVTISRDNAKHTVYLQLNSLKPEDTAVNYCAAGAYWRLYPYRQRNGGRRYYWGQGTQVTVSW | low polyreactivity |
| QVQLVESGGGLVQAGGSLRLSCAASGFTSNYYAMGWYRQAPGKERELVAAITTGGSTHYADSVKGRFTISRDNAKNTVYLQMNSLKPEDTAVYYCAAGTNRQQQRYFHPGGYYQYNYWGQGSQVTVSS | low polyreactivity |
| QVQLVESGGGLVQAGGSLRLSCAASGSIFETYVMGWYRQAPGKERELVAAINSGGSTNYADSVKGRFTISRDNAKNTVYLQMNSLKPEDTAVYYCAAEWRGDRYRLYVVSWWYDYWGQGTQVTVSS | low polyreactivity |
| QVQLVESGGGLVQAGGSLRLSCAASGSTFALYTMGWYRQAPGKERELVAAIRYGGGSTYYADSVKGRFTISRDNAKNTVYLQMNSLKPEDTAVYYCARDLYNLYSGSYYWGQGTQVTVSS | low polyreactivity |
| QDQLVESGGGLFQAGGSLRLICAASGFIFSSYDMGWDRQAPGKERELVAAITTVGSRIYADSVKGRFTISRDNAKNTVDLQMNCLKPEDSAVYVCATVPGGSWLVLWWSTGGDDEYWGHGTQVTVSS | low polyreactivity |
| QVQLVESGGGLVQAGGSLRLSCAAYGRILYYYAMGWYRQAPGKETELVAAITETSGSTYYADSVKGRFTISRDNAKTTVYLQMNSLHPEDTAVYYCAASSTRGHYTAYDYWGQGTHVTVSS | low polyreactivity |
| QVQLVESGGGLVQAGGSLRLSCAASGFTFPVYTMGWYRQAPGKERELVAAISTSGAGTYYADSVKGRFTISRDNAKNTVYLQMNSLKPEDTAVYYCAAYKRGRPEMYYWGQGTQVTVSS | high polyreactivity |
| QVQLVESGGGLVQAGGSLRLSCAASGLTFSGYAMGWYRQAPGKERELVAAISWRGGSTYYADSVKGRFTISRDNAKNTVYLQMNSLKPEDTAVYYCNRARVQDYPYYYWGQGTQVTVSS | high polyreactivity |
| QVQLVESGGGLVQAGGSLRLSCAASGIILHYYTMGWYRQAPGKERELVAAITFSGGGTYYADSVKGRFTISRDNAKNTVYLQMNSLKPEDTAVYYCAAPWRYYGHDYWGQGTQVTVSS | low polyreactivity |
| QVQLVESGGGLVQAGGSLRLSCAASGIIFVYNTMGWYRQAPGKERELVAAISYSGGGTYYADSVKGRFTISRDNAKNTVYLQMNSLKPEDTAVYYCAAETYYAPYDYWGQGTQVTVSS | high polyreactivity |
| QVQLVESGGGLVQAGGSLRLSCAASGSTFRYYVMGWYRQAPGKERELVAAISSSGGSTYYADSVKGRFTISRDNAKNTVYLQMNSLKPEDTAVYYCARDKGYVSYRYNYWGQGTQVTVSS | high polyreactivity |
| QVQLVESGGGLVQAGCSLRISCAASGRIIKSYASGWYRQAPGKERELVAAITWSSGSTYYADSVKGRFTISRDNAKNTVYFQMKRLKPEDTEVYYCAADPIRYRSRHKYGFWGHGTQVTVSS | low polyreactivity |
| QVQLVESGGGLVQAGGSLRLSCAASGRTFYNAMGWYIQAPGKERELVAAITTGGGTKYADSVKGRFTISRDNAKNTVYLQMHSLQPEDTAVYYCNTDAWYHFYHGAHKFDYWGQGTQVTVSS | low polyreactivity |
| HVQLVESGGGLVQAGGSLRLSCAASGLTFEDNDMGWYRQAPGKERELVAAISSAGSTSYADSVKGRFTISRVNAKNTVYLQMNSLKPEDTAVYYCAKDNSPSYTPAQLDGGDDYWGHGTQVTVSS | low polyreactivity |
| QVQLQESVGGLVQAGGSLRLSCASSGSISNSAAMGWYRQAPGKERELVVSIGHGASSNYADSVKGRFTISRDNAKNTVYLQMNSLKPEDTAVYYCAAYPGFLDGFFYWGQSTQVTVSS | high polyreactivity |
| QVQLVESGGGLVQAGGSLRLSCAASGLIFKYNAMGWYRQAPGKERELVADINRSGGSTYYADSVKGRFTISRDNAKNTVYLQMNSLKPEDTAVYYCAAERVSLYWVIFGYWGQGTQVTVSS | low polyreactivity |
| QVQLVESGGGLVQAGGSLRLSCAASGRIFTHNAMGWYRQAPGKERELVAAISYSGVSTYYADSVKGRFTISRDNAKNTVYLQMNSLKPEDTAVYYCNALIQSWRARIRRYYWGQGTQVTVSS | low polyreactivity |
| QVQLVESGGGLVQAGGSLRLSCAASGFTFGGYAMGWYRQAPGKEREMVAGISGSGGRTYYADSVKGRFTISRDNAKNTVYLQMNSLKPEDTAVYYCGADRASPYLEYYWGLGTQVTVSS | low polyreactivity |
| QVQLVESGGGLVQAGGSLRLSCAASGFIFRLNTMGWYRQAPGKERELVATISSGGSTNYADSVKGRFTISRDNAKITVYLQMNSLKPEDTAVYYCAKKKTRYGGSYNYWGQGTQVTVSS | high polyreactivity |
| QVQLVESGGGLVQAGGSLRLRCAASGSIFPPYAMGWYRQAPGKERELVAVISFSSGRTYYADSVKGRFTISRDNAKNTVYLQMNSQKPEDTAVYYCAADYESRNKFDYWGQGTQVTVTS | low polyreactivity |
| QVQLVESGGGLVQAGGSLRLSCAASGFTIYRYAMGWYRQAPGKERELVATIRRGGSTKYADSVKGRFTISRDNAKNTVYLQMNSLKPEDTAVYYCNARYYAAPDKYYYWGQGTQVTVSS | low polyreactivity |

From the nanobody polyreactivity screen of Harvey et al. (2022)
